For eight sequences, Kd results are on record in the Immune Epitope Database (IEDB).

Experiment [1] concerns the target HLA-B*07:02. Kind of experiment: IEDB peptide-MHC binding, purified MHC/direct/fluorescence; filed as Kd, often an IC50 or EC50 that approximates it; ≥ and ≤ were set here for values at or beyond the usual limits of such assays.
In another experiment the target is HLA-B*58:01. The description is as above.
For the next experiment, the target named is HLA-B*18:01. The description is as above.
A further experiment addresses HLA-B*40:01. Described as above.
A further experiment deals with HLA-A*24:02. The experiment is described as above.
The target of experiment [2] is HLA-B*08:01. The description is as above.
The target of another experiment is HLA-B*15:01. The experiment is described as above.
In a further experiment the target is HLA-A*26:01. The description is as above.
The target of another experiment is HLA-A*01:01. The experiment is described as above.
The target of a further experiment is HLA-B*44:02. Described as above.
Another experiment has as its target HLA-B*46:01. The experiment is described as above.
A further experiment deals with HLA-A*02:01. The experiment is described as above.
Another experiment addresses HLA-B*08:02. Described as above.
For a further experiment, the target named is HLA-A*03:01. The experiment is described as above.
A further experiment has as its target HLA-A*69:01. The experiment is described as above.
A further experiment concerns the target HLA-B*27:05. The experiment is described as above.
The target in experiment [3] is HLA-B*07:02. Kind of experiment: IEDB peptide-MHC binding, purified MHC/competitive/radioactivity; filed as Kd, often an IC50 or EC50 that approximates it; ≥ and ≤ were set here for values at or beyond the usual limits of such assays. Conditions: source organism: Vaccinia virus WR.
Experiment [4] has as its target HLA-B*51:01. The experiment is described as above. Conditions: source organism: Vaccinia virus WR.
In a further experiment the target is HLA-B*35:01. The description is as above. The note with it: source organism: Vaccinia virus WR.
A further experiment deals with HLA-B*53:01. The description is as above. Conditions: source organism: Vaccinia virus WR.
The next experiment addresses HLA-B*54:01. The experiment is described as above. Conditions: source organism: Vaccinia virus WR.
The target in the next experiment is HLA-C*05:01. Kind of experiment: IEDB peptide-MHC binding, purified MHC/direct/fluorescence; filed as Kd, often an IC50 or EC50 that approximates it; ≥ and ≤ were set here for values at or beyond the usual limits of such assays. Conditions: source organism: Variola virus.
The next experiment has as its target HLA-A*30:01. As to the kind of experiment: IEDB peptide-MHC binding, purified MHC/competitive/fluorescence; filed as Kd, often an IC50 or EC50 that approximates it; ≥ and ≤ were set here for values at or beyond the usual limits of such assays. Conditions: source organism: Influenza A virus (A/X-31(H3N2)).
The next experiment addresses HLA-A*11:01. As to the kind of experiment: IEDB peptide-MHC binding, purified MHC/direct/fluorescence; filed as Kd, often an IC50 or EC50 that approximates it; ≥ and ≤ were set here for values at or beyond the usual limits of such assays.
The target of another experiment is HLA-B*15:17. The description is as above. Conditions: source organism: Influenza A virus (A/chicken/Hubei/wm/1997(H5N1)).
The target of the next experiment is HLA-B*48:01. The experiment is described as above. The note with it: source organism: Influenza A virus (A/chicken/Hubei/wm/1997(H5N1)).
The target in the next experiment is HLA-A*31:01. The experiment is described as above.
The target of another experiment is HLA-B*57:01. Described as above. Conditions: source organism: Influenza A virus (A/chicken/Hubei/wm/1997(H5N1)).
For another experiment, the target named is HLA-A*26:02. The experiment is described as above. Conditions: source organism: Influenza A virus (A/Taiwan/2/2006(H1N1)).
The target of experiment [5] is HLA-B*07:02. As to the kind of experiment: IEDB peptide-MHC binding, purified MHC/competitive/fluorescence; filed as Kd, often an IC50 or EC50 that approximates it; ≥ and ≤ were set here for values at or beyond the usual limits of such assays. The note with it: source organism: Yersinia mollaretii ATCC 43969.
Experiment [6] deals with HLA-B*51:01. The experiment is described as above. Conditions: source organism: Yersinia mollaretii ATCC 43969.
In experiment [7] the target is HLA-B*08:01. Described as above. The note with it: source organism: Yersinia mollaretii ATCC 43969.
[8] abbreviates: source organism: Influenza A virus (A/chicken/Vietnam/5/2003(H5N1)).
Where [9] appears, read: source organism: Influenza A virus(A/swine/Henan/3/2004(H9N2)).
[10] abbreviates: source organism: Influenza A virus (A/Puerto Rico/8/34/Mount Sinai(H1N1)).
The mark [11] stands for this setting: source organism: Influenza A virus (A/swine/Korea/S190/2004(H9N2)).
Setting [12] is: source organism: Influenza A virus H3N2.
Setting [13] is: source organism: Influenza A virus (A/chicken/Hubei/wm/1997(H5N1)).
The mark [14] stands for this setting: source organism: Cryptosporidium parvum.
[15] abbreviates: source organism: Escherichia coli O157:H7.
[16] abbreviates: source organism: Influenza A virus (A/Hong Kong/485/1997(H5N1)).

For the sequence RVDKLTQGR, the equilibrium dissociation constant (Kd) with HLA-B*07:02 [1] (setting [8]), in the experiment with HLA-B*58:01 (setting [8]), in the experiment with HLA-B*18:01 (setting [8]), in the experiment with HLA-B*40:01 (setting [8]), with HLA-A*24:02 (setting [8]) and in the experiment with HLA-B*08:01 [2] (setting [8]) was not below 20 µM throughout. Besides, the Kd in the experiment with HLA-B*15:01 (setting [8]), with HLA-A*26:01 (setting [9]), with HLA-A*01:01 (setting [8]), in the experiment with HLA-B*44:02 (setting [8]), with HLA-B*46:01 (setting [8]) and with HLA-A*02:01 (setting [8]) was not below 20 µM throughout. The dissociation constant (Kd) (as a rule, the constant that tells how readily two partners part at equilibrium) with HLA-B*08:02 (setting [9]) was not below 20 µM; with HLA-A*03:01 (setting [10]), not below 10 µM; with HLA-A*69:01 (setting [8]) it was not below 20 µM; in the experiment with HLA-B*27:05 (setting [8]), not below 20 µM.

As for ATTHSWIPK, the dissociation constant Kd in the experiment with HLA-B*07:02 [1] (setting [11]), in the experiment with HLA-B*58:01 (setting [11]), in the experiment with HLA-B*18:01 (setting [11]), with HLA-B*40:01 (setting [11]), with HLA-A*24:02 (setting [11]) and with HLA-B*08:01 [2] (setting [11]) was not below 20 µM each time. Besides, the dissociation constant Kd with HLA-B*15:01 (setting [11]), with HLA-A*26:01 (setting [12]), with HLA-A*01:01 (setting [11]), with HLA-B*44:02 (setting [11]), with HLA-B*46:01 (setting [11]) and with HLA-A*02:01 (setting [11]) was not below 20 µM throughout. Further, the Kd in the experiment with HLA-B*08:02 (setting [12]) was not below 20 µM; in the experiment with HLA-A*03:01 (setting [10]) it was 0.826 µM; with HLA-A*69:01 (setting [11]), not below 20 µM; in the experiment with HLA-B*27:05 (setting [11]), not below 20 µM.

As for LPMIIGEPI, the Kd is 0.000255 µM with HLA-B*07:02 [3]; 0.00117 µM with HLA-B*51:01 [4]; 0.0645 µM in the experiment with HLA-B*35:01; 0.0056 µM in the experiment with HLA-B*53:01; 0.00157 µM in the experiment with HLA-B*54:01; not below 20 µM with HLA-C*05:01.

Turning to EKPKFLPDL, the Kd in the experiment with HLA-A*30:01, with HLA-A*11:01 (setting [13]), with HLA-B*07:02 [1] (setting [13]), with HLA-B*15:17, in the experiment with HLA-B*58:01 (setting [13]) and with HLA-B*18:01 (setting [13]) was not below 20 µM throughout. For the same sequence, the Kd in the experiment with HLA-B*48:01, in the experiment with HLA-B*40:01 (setting [13]), with HLA-B*15:01 (setting [13]), with HLA-A*26:01 (setting [13]), in the experiment with HLA-A*01:01 (setting [13]) and with HLA-B*46:01 (setting [13]) was not below 20 µM in each case. For the same sequence, the dissociation constant (Kd) in the experiment with HLA-A*02:01 (setting [13]), with HLA-A*31:01 (setting [13]), with HLA-A*03:01 (setting [13]), with HLA-B*57:01, with HLA-A*26:02 and with HLA-A*69:01 (setting [13]) was not below 20 µM in each case. The Kd in the experiment with HLA-B*27:05 (setting [13]) is not below 20 µM.

IINAHRIPK: the Kd in the experiment with HLA-A*11:01 (setting [14]) was 0.0267 µM; in the experiment with HLA-B*07:02 [1] (setting [14]) it was not below 20 µM; with HLA-B*58:01 (setting [14]), not below 20 µM; in the experiment with HLA-B*18:01 (setting [14]) it was not below 20 µM; with HLA-B*40:01 (setting [14]), not below 20 µM; with HLA-A*24:02 (setting [14]) it was not below 20 µM. In addition, the equilibrium dissociation constant (Kd) in the experiment with HLA-B*15:01 (setting [14]) was not below 20 µM; with HLA-A*26:01 (source organism: Cryptosporidium parvum Iowa II), not below 20 µM; in the experiment with HLA-A*01:01 (setting [14]), not below 20 µM; with HLA-B*44:02 (setting [14]), not below 20 µM; in the experiment with HLA-A*31:01 (setting [14]) it was 0.0316 µM; with HLA-A*03:01 (setting [14]), 0.0825 µM. Further, the Kd with HLA-A*69:01 (setting [14]) and in the experiment with HLA-B*27:05 (setting [14]) was not below 20 µM each time.

For PILPKLFIL, the Kd with HLA-B*07:02 [1] (setting [15]), with HLA-B*58:01 (setting [15]), in the experiment with HLA-B*18:01 (setting [15]), with HLA-B*40:01 (setting [15]), in the experiment with HLA-A*24:02 (setting [15]) and in the experiment with HLA-B*15:01 (setting [15]) was not below 20 µM each time. Further, the Kd with HLA-A*01:01 (setting [15]) was not below 20 µM; with HLA-B*44:02 (setting [15]), not below 20 µM; with HLA-B*46:01 (setting [15]) it was not below 20 µM; with HLA-A*02:01 (setting [15]), 5.7 µM; with HLA-A*03:01 (setting [15]) it was not below 20 µM; with HLA-B*27:05 (setting [15]), not below 20 µM.

In the case of MPMYAIHKV, the Kd in the experiment with HLA-B*07:02 [5] is 0.0267 µM; in the experiment with HLA-B*51:01 [6], 1.14 µM; in the experiment with HLA-B*08:01 [7], 1.87 µM.

As for QMRDVLGTF, the Kd in the experiment with HLA-A*11:01 (setting [16]) was not below 20 µM; with HLA-B*07:02 [1] (setting [10]) it was 0.381 µM; in the experiment with HLA-B*58:01 (setting [16]) it was not below 20 µM; with HLA-B*40:01 (setting [16]) it was not below 20 µM; in the experiment with HLA-A*24:02 (setting [16]) it was not below 20 µM; in the experiment with HLA-B*15:01 (setting [10]), 0.066 µM. Moreover, the dissociation constant (Kd) with HLA-A*26:01 (source organism: Influenza A virus (A/Hong Kong/507/97(H5N1))) was 0.135 µM; with HLA-A*01:01 (setting [16]), not below 20 µM; in the experiment with HLA-B*44:02 (setting [16]), not below 20 µM; with HLA-A*02:01 (setting [16]) it was not below 20 µM; with HLA-A*31:01 (setting [16]), not below 20 µM; with HLA-A*03:01 (setting [16]) it was not below 20 µM. Also, the equilibrium dissociation constant (Kd) with HLA-B*27:05 (setting [16]) is not below 20 µM.
